Experimental data: the supplement of paper PMC5998384

What was measured:
HeLa Kyoto [1] = assay: solubility in G1/S (NP-40 vs SDS abundance) (log2 ratio); higher = more soluble; conditions: cell cycle stage: G1/S
HeLa Kyoto [2] = assay: melting temperature (median over replicates), in situ; higher = more thermally stable
HeLa Kyoto [3] = assay: solubility change mitosis vs G1/S (difference of NP-40 vs SDS log2 ratios) (log2 ratio difference); higher = more soluble in mitosis
HeLa Kyoto [4] = assay: thermal stability score vs G1/S (z-score of summed log2 fold changes over temperatures); higher = more thermally stable than in G1/S
[5] = cell cycle stage: early G1 (4.5 h after nocodazole release)
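Wherever melting temperature (median over replicates), in situ is given: HeLa Kyoto cells synchronized by double thymidine or nocodazole block, proteins quantified by TMT10plex mass spectrometry, three independent biological replicates.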
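Wherever solubility change mitosis vs G1/S (difference of NP-40 vs SDS log2 ratios) is given: synchronized HeLa Kyoto cells (double thymidine block for G1/S, nocodazole release for mitosis), protein amounts in NP-40 versus SDS lysates quantified by mass spectrometry, three biological replicates.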
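Wherever solubility in G1/S (NP-40 vs SDS abundance) is given: HeLa Kyoto cells arrested at G1/S by double thymidine block, proteins quantified by TMT10plex mass spectrometry in mild NP-40 versus SDS extracts, three biological replicates.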
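Wherever thermal stability score vs G1/S (z-score of summed log2 fold changes over temperatures) is given: synchronized HeLa Kyoto cells, proteins quantified by TMT10plex mass spectrometry, three biological replicates, mitosis taken 0.5 h after nocodazole release, G1/S directly after double thymidine block.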

For “MAGTSAPGSKRRSEPPAPRPGPPPGTGHPPSKRARGFSAAAAPDPDDPFGAHGDFTADDLEELDTLASQALSQCPAAARDVSSDHKVHRLLDGMSKNPSGKNRETVPIKDNFELEVLQAQYKELKEKMKVMEEEVLIKNGEIKILRDSLHQTESVLEEQRRSHFLLEQEKTQALSDKEKEFSKKLQSLQSELQFKDAEMNELRTKLQTSERANKLAAPSVSHVSPRKNPSVVIKPEACSPQFGKTSFPTKESFSANMSLPHPCQTESGYKPLVGREDSKPHSLRGDSIKQEEAQKSFVDSWRQRSNTQGSILINLLLKQPLIPGSSLSLCHLLSSSSESPAGTPLQPPGFGSTLAGMSGLRTTGSYDGSFSLSALREAQNLAFTGLNLVARNECSRDGDPAEGGRRAFPLCQLPGAVHFLPLVQFFIGLHCQALQDLAAAKRSGAPGDSPTHSSCVSSGVETNPEDSVCILEGFSVTALSILQHLVCHSGAVVSLLLSGVGADSAAGEGNRSLVHRLSDGDMTSALRGVADDQGQHPLLKMLLHLLAFSSAATGHLQASVLTQCLKVLVKLAENTSCDFLPRFQCVFQVLPKCLSPETPLPSVLLAVELLSLLADHDQLAPQLCSHSEGCLLLLLYMYITSRPDRVALETQWLQLEQEVVWLLAKLGVQSPLPPVTGSNCQCNVEVVRALTVMLHRQWLTVRRAGGPPRTDQQRRTVRCLRDTVLLLHGLSQKDKLFMMHCVEVLHQFDQVMPGVSMLIRGLPDVTDCEEAALDDLCAAETDVEDPEVECG [ATRIP]”, the “solubility in G1/S (log2)” value (HeLa Kyoto [1]) was 0.243, the melting temperature (HeLa Kyoto [2]; cell cycle stage: G1/S) was 50.9 °C and the melting temperature (HeLa Kyoto [2]; cell cycle stage: mitosis) was 51.5 °C. For the same substance, the “solubility change mitosis (log2)” value (HeLa Kyoto [3]) was 0.065, the thermal stability score (HeLa Kyoto [4]; [5]) was 0.257 and the thermal stability score (HeLa Kyoto [4]; cell cycle stage: mitosis) was 0.455.
With “MEEGGGGVRSLVPGGPVLLVLCGLLEASGGGRALPQLSDDIPFRVNWPGTEFSLPTTGVLYKEDNYVIMTTAHKEKYKCILPLVTSGDEEEEKDYKGPNPRELLEPLFKQSSCSYRIESYWTYEVCHGKHIRQYHEEKETGQKINIHEYYLGNMLAKNLLFEKEREAEEKEKSNEIPTKNIEGQMTPYYPVGMGNGTPCSLKQNRPRSSTVMYICHPESKHEILSVAEVTTCEYEVVILTPLLCSHPKYRFRASPVNDIFCQSLPGSPFKPLTLRQLEQQEEILRVPFRRNKEEDLQSTKEERFPAIHKSIAIGSQPVLTVGTTHISKLTDDQLIKEFLSGSYCFRGGVGWWKYEFCYGKHVHQYHEDKDSGKTSVVVGTWNQEEHIEWAKKNTARAYHLQDDGTQTVRMVSHFYGNGDICDITDKPRQVTVKLKCKESDSPHAVTVYMLEPHSCQYILGVESPVICKILDTADENGLLSLPN [ERLEC1]” the “solubility in G1/S (log2)” value (HeLa Kyoto [1]) was 0.0171, the melting temperature (HeLa Kyoto [2]; cell cycle stage: G1/S) was 54.1 °C and the melting temperature (HeLa Kyoto [2]; cell cycle stage: mitosis) was 54 °C. The “solubility change mitosis (log2)” value (HeLa Kyoto [3]) was -0.0947, the thermal stability score (HeLa Kyoto [4]; [5]) was 1.6 and the thermal stability score (HeLa Kyoto [4]; cell cycle stage: mitosis) was 0.429.
With MLLT4 the “solubility in G1/S (log2)” value (HeLa Kyoto [1]) was -0.184, the melting temperature (HeLa Kyoto [2]; cell cycle stage: G1/S) was 50.9 °C and the melting temperature (HeLa Kyoto [2]; cell cycle stage: mitosis) was 50.3 °C. For the same substance, the “solubility change mitosis (log2)” value (HeLa Kyoto [3]) was 0.00908, the thermal stability score (HeLa Kyoto [4]; [5]) was -0.182 and the thermal stability score (HeLa Kyoto [4]; cell cycle stage: mitosis) was -0.125.
For “MAARWRFWCVSVTMVVALLIVCDVPSASAQRKKEMVLSEKVSQLMEWTNKRPVIRMNGDKFRRLVKAPPRNYSVIVMFTALQLHRQCVVCKQADEEFQILANSWRYSSAFTNRIFFAMVDFDEGSDVFQMLNMNSAPTFINFPAKGKPKRGDTYELQVRGFSAEQIARWIADRTDVNIRVIRPPNYAGPLMLGLLLAVIGGLVYLRRSNMEFLFNKTGWAFAALCFVLAMTSGQMWNHIRGPPYAHKNPHTGHVNYIHGSSQAQFVAETHIVLLFNGGVTLGMVLLCEAATSDMDIGKRKIMCVAGIGLVVLFFSWMLSIFRSKYHGYPYSFLMS [MAGT1]”, the “solubility in G1/S (log2)” value (HeLa Kyoto [1]) was -0.189, the melting temperature (HeLa Kyoto [2]; cell cycle stage: G1/S) was 53.9 °C and the melting temperature (HeLa Kyoto [2]; cell cycle stage: mitosis) was 53.3 °C. The “solubility change mitosis (log2)” value (HeLa Kyoto [3]) was -0.0398, the thermal stability score (HeLa Kyoto [4]; [5]) was 2.09 and the thermal stability score (HeLa Kyoto [4]; cell cycle stage: mitosis) was 2.05.
In the case of “MAELDIGQHCQVEHCRQRDFLPFVCDDCSGIFCLEHRSRESHGCPEVTVINERLKTDQHTSYPCSFKDCAERELVAVICPYCEKNFCLRHRHQSDHECEKLEIPKPRMAATQKLVKDIIDSKTGETASKRWKGAKNSETAAKVALMKLKMHADGDKSLPQTERIYFQVFLPKGSKEKSKPMFFCHRWSIGKAIDFAASLARLKNDNNKFTAKKLRLCHITSGEALPLDHTLETWIAKEDCPLYNGGNIILEYLNDEEQFCKNVESYLE [ZFAND1]”, the “solubility in G1/S (log2)” value (HeLa Kyoto [1]) is reported as 0.496, the melting temperature (HeLa Kyoto [2]; cell cycle stage: G1/S) is reported as 50.6 °C and the melting temperature (HeLa Kyoto [2]; cell cycle stage: mitosis) is reported as 49.9 °C. For the same substance, the “solubility change mitosis (log2)” value (HeLa Kyoto [3]) was -0.173, the thermal stability score (HeLa Kyoto [4]; [5]) was -0.0516 and the thermal stability score (HeLa Kyoto [4]; cell cycle stage: mitosis) was 1.54.
